Literature values as cited in article PMC3763834.
Values joined by “and” are separate entries in the source; they are usually repeats but may differ in a detail not shown here. Equal values may be shown once.

Target: PKA catalytic subunit (UniProt P17612)

Kd: 1 nM and 0.1 nM
Substance: PKA RII subunit (from UniProt P13861)
